The results in this text go back to article PMC8549118 (Nature structural & molecular biology, 2021).

Non-standard residues stand in square brackets, D forms with d. No end group written: not given here. pT = C[C@@H](OP(=O)(O)O)[C@H](N)C(=O)O; pS = N[C@@H](COP(=O)(O)O)C(=O)O

The assay addresses T1, VSP-C363S (voltage-sensing phosphatase, aa 241-576) (C. intestinalis, UniProt Q4W8A1 241-576, C363S).
T1 sequence (looked up): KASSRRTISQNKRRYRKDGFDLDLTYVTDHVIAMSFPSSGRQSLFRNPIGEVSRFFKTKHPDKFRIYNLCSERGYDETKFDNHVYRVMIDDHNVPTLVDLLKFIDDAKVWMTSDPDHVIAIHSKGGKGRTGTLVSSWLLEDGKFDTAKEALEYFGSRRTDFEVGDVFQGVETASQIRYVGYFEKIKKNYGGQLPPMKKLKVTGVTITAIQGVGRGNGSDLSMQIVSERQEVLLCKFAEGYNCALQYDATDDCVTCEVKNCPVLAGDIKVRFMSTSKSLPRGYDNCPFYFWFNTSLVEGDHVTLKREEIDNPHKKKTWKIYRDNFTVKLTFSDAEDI
Nature of the assay: fluorescence polarisation. For orientation: In fluorescence polarisation assays a small probe gives low polarisation when free and higher when bound to something large.

CRY[pS]D[pT][pT]D[pS]DPENEG [4p-T2, tetraphosphorylated PTEN C-tail peptide (15 aa)]: the binding result was “binds”.
